Bridge positions count the residues as written; N and C are the ends. Square brackets hold non-standard residues; d marks the D form. R8 = C=CCCCCCC[C@@](C)(N)C(=O)O; S5 = C=CCCC[C@](C)(N)C(=O)O

In assay [1] the target is T1, Beclin 1 coiled coil domain (human Beclin 1, residues 176-268) (human), Q14457. Put plainly: ITC, peptide titrated into Beclin 1 coiled coil domain, 25 C, one-site model. A general note: In ITC the heat of successive injections is recorded.
Assay [2] has as its target T1, Beclin 1 coiled coil domain (human …). Briefly: ITC, compared with Tat-SP4.

T1 sequence (Q14457 176-268 limits assumed): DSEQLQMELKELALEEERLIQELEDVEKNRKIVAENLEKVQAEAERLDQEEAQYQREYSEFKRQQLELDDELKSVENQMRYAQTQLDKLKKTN

B1: i7-01s-54 (Ac-[Tat]-ALIQ(R8)[…](S5)RKR-NH2) (peptide)
peptide: Ac-YGRKKRRQRRRALIQ[R8]QEDVEK[S5]RKR-NH2
modifications: staple 16-23
SMILES: CC[C@H](C)[C@H](NC(=O)[C@H](CC(C)C)NC(=O)[C@H](C)NC(=O)[C@H](CCCNC(=N)N)NC(=O)[C@H](CCCNC(=N)N)NC(=O)[C@H](CCCNC(=N)N)NC(=O)[C@H](CCC(N)=O)NC(=O)[C@H](CCCNC(=N)N)NC(=O)[C@H](CCCNC(=N)N)NC(=O)[C@H](CCCCN)NC(=O)[C@H](CCCCN)NC(=O)[C@H](CCCNC(=N)N)NC(=O)CNC(=O)[C@H](Cc1ccc(O)cc1)NC(C)=O)C(=O)N[C@@H](CCC(N)=O)C(=O)N[C@]1(C)CCCCCCC=CCCC[C@@](C)(C(=O)N[C@@H](CCCNC(=N)N)C(=O)N[C@@H](CCCCN)C(=O)N[C@@H](CCCNC(=N)N)C(N)=O)NC(=O)[C@H](CCCCN)NC(=O)[C@H](CCC(=O)O)NC(=O)[C@H](C(C)C)NC(=O)[C@H](CC(=O)O)NC(=O)[C@H](CCC(=O)O)NC(=O)[C@H](CCC(N)=O)NC1=O
In assay [1], B1 registered a Kd of 311 µM.

B2: i7-01s-31 (Ac-[Tat]-VLFN(R8)[…](S5)RKV-NH2) (peptide)
peptide: Ac-YGRKKRRQRRRVLFN[R8]LVDVIK[S5]RKV-NH2
modifications: staple 16-23
SMILES: CC[C@H](C)[C@@H]1NC(=O)[C@H](C(C)C)NC(=O)[C@H](CC(=O)O)NC(=O)[C@H](C(C)C)NC(=O)[C@H](CC(C)C)NC(=O)[C@](C)(NC(=O)[C@H](CC(N)=O)NC(=O)[C@H](Cc2ccccc2)NC(=O)[C@H](CC(C)C)NC(=O)[C@@H](NC(=O)[C@H](CCCNC(=N)N)NC(=O)[C@H](CCCNC(=N)N)NC(=O)[C@H](CCCNC(=N)N)NC(=O)[C@H](CCC(N)=O)NC(=O)[C@H](CCCNC(=N)N)NC(=O)[C@H](CCCNC(=N)N)NC(=O)[C@H](CCCCN)NC(=O)[C@H](CCCCN)NC(=O)[C@H](CCCNC(=N)N)NC(=O)CNC(=O)[C@H](Cc2ccc(O)cc2)NC(C)=O)C(C)C)CCCCCCC=CCCC[C@@](C)(C(=O)N[C@@H](CCCNC(=N)N)C(=O)N[C@@H](CCCCN)C(=O)N[C@H](C(N)=O)C(C)C)NC(=O)[C@H](CCCCN)NC1=O
B2 registered a fold stronger binding affinity than Tat-SP4 in assay [2] of 10 fold. Besides, the Kd in assay [1] came to 0.33 µM.

As a reminder, the Kd is the concentration at which binding is half-saturated. A lower Kd goes with tighter binding.

Values taken from patent publication US20240190920A1, “BECLIN 1-TARGETED STAPLED PEPTIDE AND PHARMACEUTICAL COMPOSITION” (Shenzhen Research Institute of the Hong Kong Polytechnic …, priority 2021, published 2024).
